{"source": "paper PMC5570508", "about": "“Structural analysis of P. falciparum KAHRP and PfEMP1 complexes with host erythrocyte spectrin suggests a model for cytoadherent knob protrusions” (PLoS Pathogens, 2017)", "data": [{"molecular_target": "T1, spectrin β chain domains 10–14 (human, UniProt P11277 1272-1804)", "T1 construct": "human erythrocyte β spectrin, UniProt P11277, residues 1272-1804; also called β10–14; source: E. coli Rosetta2(DE3), purified (Talon, Q-Sepharose, Superdex 75 or 200); not shown: His10 or His6 (modified pET16b or pET15b), N-terminal, cleaved", "T1 sequence (looked up)": "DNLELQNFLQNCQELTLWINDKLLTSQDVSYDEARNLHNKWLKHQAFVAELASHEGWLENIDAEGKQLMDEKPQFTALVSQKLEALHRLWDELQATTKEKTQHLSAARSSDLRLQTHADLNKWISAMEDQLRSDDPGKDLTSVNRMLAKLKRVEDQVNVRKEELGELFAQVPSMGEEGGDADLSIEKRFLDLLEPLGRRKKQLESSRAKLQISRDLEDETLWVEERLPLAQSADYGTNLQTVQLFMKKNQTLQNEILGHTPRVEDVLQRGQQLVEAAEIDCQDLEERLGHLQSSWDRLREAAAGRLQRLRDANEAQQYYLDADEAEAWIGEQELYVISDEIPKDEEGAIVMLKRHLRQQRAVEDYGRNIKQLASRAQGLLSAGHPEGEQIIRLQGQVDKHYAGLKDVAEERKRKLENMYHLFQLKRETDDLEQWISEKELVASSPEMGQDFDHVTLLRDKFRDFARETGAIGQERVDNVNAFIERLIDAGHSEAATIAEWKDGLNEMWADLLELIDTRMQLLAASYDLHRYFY", "experiment": "fluorescence polarisation; titration: 5-FAM-labeled protein at 0.5 or 1 μM titrated with unlabeled protein; 20°C; analysis buffer (20 mM NaH2PO4, 50 mM NaCl, 1 mM DTT pH 7); single site binding model", "settings": "both partners purified", "values": [{"binder": "KAHRP 5´-repeat scrambled sequence, Scramble 4 (5-carboxyfluorescein (5-FAM) on a single cysteine at the protein N-terminus, amino acid content of the KAHRP 5´ repeat, randomly scrambled; also called scrambled peptide; source: E. coli, recombinant, purified as the KAHRP fragments; not shown: His10, N-terminal, cleaved) CESNKKNGHEKGGKKSESKHKKKDHAEKEPKNKKGAHHDDSDKSKTKHNSESDEKVHKSESKEKSKDKVGNKGKEKKVSNSEKKDKNKKDHSHSKETKEKDEKDKKHKSSNKENK", "binding result": "binds"}, {"binder": "KAHRP 5´-repeat scrambled sequence, Scramble 1 (5-carboxyfluorescein (5-FAM) on a single cysteine at the protein N-terminus, amino acid content of the KAHRP 5´ repeat, randomly scrambled; also called scrambled peptide; source: E. coli, recombinant, purified as the KAHRP fragments; not shown: His10, N-terminal, cleaved) CGGSDNSEKNKKEHKKEKSAHEKEKDKKAEHKKDKDGSKKSSEKKKNSTKEHESSEHNHSEHKKSDNHKKKKENKEDDSEKEKNKKSDVVSDNKKTHKKGGKKKSKPKGNKSVHD", "binding result": "binds"}, {"binder": "KAHRP 5´-repeat scrambled sequence, Scramble 3 (5-carboxyfluorescein (5-FAM) on a single cysteine at the protein N-terminus, amino acid content of the KAHRP 5´ repeat, randomly scrambled; also called scrambled peptide; source: E. coli, recombinant, purified as the KAHRP fragments; not shown: His10, N-terminal, cleaved) CHDNKGKKSHDSSGDKKHKNKKSKKKKESPTVDKKEKHEVKKKHKNKKDDVHSEEASKEENKKTEKGKNEKESNAKKSKNSHHDSKKGKEHEGSSKNKDHDKKEKNSDESKKGES", "binding result": "binds"}, {"binder": "KAHRP 5´-repeat scrambled sequence, Scramble 2 (5-carboxyfluorescein (5-FAM) on a single cysteine at the protein N-terminus, amino acid content of the KAHRP 5´ repeat, randomly scrambled; also called scrambled peptide; source: E. coli, recombinant, purified as the KAHRP fragments; not shown: His10, N-terminal, cleaved) CEKSDDKKESKSKHDGSVKKKSEEKKKDNESSTKSDGKNKKNKKHNEHESKHEHKGEGKKKEHGSNEDHKKKNDNEVKGKHKKSPKKKAETKKNSSHDSDKKEKDSSKKVHNEAK", "binding result": "binds"}]}]}
